The target in series [1] is T1, NLRX1 FL recombinant (human, UniProt Q86UT6 1-975). The experiment in a line: SPR.
For series [2], the target named is T2, NLRC3 FL recombinant (human, UniProt Q7RTR2 1-1065).
T2 sequence: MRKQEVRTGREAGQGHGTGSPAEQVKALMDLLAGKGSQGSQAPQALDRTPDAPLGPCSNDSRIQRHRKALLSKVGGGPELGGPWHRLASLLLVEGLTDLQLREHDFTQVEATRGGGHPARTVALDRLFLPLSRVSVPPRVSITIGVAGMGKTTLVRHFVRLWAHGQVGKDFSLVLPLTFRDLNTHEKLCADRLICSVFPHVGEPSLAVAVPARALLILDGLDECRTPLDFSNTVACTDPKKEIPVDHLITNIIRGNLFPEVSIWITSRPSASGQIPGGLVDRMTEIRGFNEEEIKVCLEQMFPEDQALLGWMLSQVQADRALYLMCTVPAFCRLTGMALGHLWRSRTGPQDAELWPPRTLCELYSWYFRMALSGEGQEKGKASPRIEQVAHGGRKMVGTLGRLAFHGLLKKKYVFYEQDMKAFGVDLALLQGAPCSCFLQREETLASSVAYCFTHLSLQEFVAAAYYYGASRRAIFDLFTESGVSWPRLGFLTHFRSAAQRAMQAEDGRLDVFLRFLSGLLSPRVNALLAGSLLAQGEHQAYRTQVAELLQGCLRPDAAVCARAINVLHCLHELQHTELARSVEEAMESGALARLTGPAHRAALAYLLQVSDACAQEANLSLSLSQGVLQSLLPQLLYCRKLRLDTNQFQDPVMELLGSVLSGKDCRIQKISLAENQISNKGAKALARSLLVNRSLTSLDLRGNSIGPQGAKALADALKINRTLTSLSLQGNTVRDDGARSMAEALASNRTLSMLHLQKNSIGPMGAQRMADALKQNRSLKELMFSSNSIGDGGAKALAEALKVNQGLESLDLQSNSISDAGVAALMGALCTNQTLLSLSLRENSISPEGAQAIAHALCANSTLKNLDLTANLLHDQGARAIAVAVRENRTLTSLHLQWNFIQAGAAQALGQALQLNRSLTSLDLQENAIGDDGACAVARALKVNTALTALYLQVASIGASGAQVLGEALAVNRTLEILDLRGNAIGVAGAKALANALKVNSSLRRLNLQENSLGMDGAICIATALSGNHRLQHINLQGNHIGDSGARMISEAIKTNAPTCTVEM
Kind of series: pull-down.

Series [3] addresses T1, NLRX1 FL recombinant. The experiment in a line: pull-down.
Series [4] addresses cGAS FL recombinant (mouse, UniProt Q8C6L5 1-507). The experiment in a line: EMSA. On the technique in general: Mobility shift assays separate free from complexed probe on a gel.
The target in series [5] is T1, NLRX1 FL recombinant. Kind of series: EMSA.
Series [6] addresses T2, NLRC3 FL recombinant. Kind of series: SPR. Background: Surface plasmon resonance follows binding to a sensor surface in real time, without labels.
In series [7] the target is T3, STING 155-341 (human, UniProt Q86WV6 155-341). Kind of series: SPR.
T3 sequence (Q86WV6 155-341): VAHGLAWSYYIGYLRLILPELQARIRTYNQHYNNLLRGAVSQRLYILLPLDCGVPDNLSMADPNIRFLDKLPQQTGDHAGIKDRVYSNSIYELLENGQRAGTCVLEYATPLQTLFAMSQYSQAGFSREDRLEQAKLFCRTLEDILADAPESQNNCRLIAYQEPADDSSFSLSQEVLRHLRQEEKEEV
The target of series [8] is T4, NLRC3 NBD recombinant (human, UniProt Q7RTR2 139-460).
T4 sequence: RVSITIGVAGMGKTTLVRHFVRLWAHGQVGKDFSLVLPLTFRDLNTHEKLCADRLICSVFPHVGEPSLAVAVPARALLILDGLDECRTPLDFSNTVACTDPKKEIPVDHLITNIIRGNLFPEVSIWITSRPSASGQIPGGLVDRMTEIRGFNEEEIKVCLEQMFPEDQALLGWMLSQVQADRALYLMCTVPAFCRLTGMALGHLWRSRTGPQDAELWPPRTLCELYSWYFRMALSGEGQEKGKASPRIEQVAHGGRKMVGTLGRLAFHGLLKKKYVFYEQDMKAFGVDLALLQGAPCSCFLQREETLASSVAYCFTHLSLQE
Kind of series: pull-down.

The target in series [9] is T3, STING 155-341. The experiment in a line: gel filtration.

T1 sequence (Q86UT6 whole entry): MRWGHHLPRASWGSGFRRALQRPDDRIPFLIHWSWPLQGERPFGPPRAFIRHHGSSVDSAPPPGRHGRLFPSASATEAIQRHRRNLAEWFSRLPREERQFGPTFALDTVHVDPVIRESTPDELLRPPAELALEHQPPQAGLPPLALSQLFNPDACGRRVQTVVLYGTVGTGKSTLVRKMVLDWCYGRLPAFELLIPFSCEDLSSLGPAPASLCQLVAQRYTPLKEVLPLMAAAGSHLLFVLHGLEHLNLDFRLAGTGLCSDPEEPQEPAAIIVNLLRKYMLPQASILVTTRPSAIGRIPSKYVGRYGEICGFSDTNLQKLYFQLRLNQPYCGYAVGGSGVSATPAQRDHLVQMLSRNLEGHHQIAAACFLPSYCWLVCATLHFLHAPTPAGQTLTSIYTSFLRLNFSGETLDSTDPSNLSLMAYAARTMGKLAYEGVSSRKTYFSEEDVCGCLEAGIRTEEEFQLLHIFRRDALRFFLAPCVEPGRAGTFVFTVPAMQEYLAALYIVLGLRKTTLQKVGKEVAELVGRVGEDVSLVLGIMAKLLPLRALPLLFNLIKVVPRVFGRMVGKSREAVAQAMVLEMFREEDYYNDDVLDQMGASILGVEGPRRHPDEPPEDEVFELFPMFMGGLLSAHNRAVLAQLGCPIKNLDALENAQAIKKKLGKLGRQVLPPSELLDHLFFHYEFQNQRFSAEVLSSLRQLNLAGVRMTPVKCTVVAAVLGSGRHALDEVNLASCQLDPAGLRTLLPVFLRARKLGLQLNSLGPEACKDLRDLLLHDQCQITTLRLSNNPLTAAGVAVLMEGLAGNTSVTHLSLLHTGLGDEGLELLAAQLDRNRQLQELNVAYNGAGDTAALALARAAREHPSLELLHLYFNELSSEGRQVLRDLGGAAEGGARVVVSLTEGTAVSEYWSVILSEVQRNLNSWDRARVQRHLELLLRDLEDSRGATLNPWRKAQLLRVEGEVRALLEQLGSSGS
cGAS FL recombinant, sequence (Q8C6L5 whole entry): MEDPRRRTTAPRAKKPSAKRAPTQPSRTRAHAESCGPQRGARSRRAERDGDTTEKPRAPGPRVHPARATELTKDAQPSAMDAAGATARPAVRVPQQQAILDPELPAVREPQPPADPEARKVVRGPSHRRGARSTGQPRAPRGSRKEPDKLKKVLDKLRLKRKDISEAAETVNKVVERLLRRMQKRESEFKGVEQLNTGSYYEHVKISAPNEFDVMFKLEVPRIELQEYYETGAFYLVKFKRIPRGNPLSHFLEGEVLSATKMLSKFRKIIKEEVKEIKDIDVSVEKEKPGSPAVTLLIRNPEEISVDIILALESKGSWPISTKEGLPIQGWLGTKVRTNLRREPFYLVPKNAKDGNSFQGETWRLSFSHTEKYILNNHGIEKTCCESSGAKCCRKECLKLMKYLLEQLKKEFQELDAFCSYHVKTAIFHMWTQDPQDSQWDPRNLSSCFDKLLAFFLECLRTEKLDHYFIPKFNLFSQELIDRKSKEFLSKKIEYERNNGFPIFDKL

B1: HSV-60 dsRNA (dsRNA)
RNA 1: UAAGACACGAUGCGAUAAAAUCUGUUUGUAAAAUUUAUUAAGGGUACAAAUUGCCCUAGC
RNA 2: GCUAGGGCAAUUUGUACCCUUAAUAAAUUUUACAAACAGAUUUUAUCGCAUCGUGUCUUA
As for B1, the binding result in series [1] was “binds”.

B2: HSV-15 dsDNA (dsDNA)
DNA 1: TAAGACACGATGCGA
DNA 2: TCGCATCGTGTCTTA
As for B2, the binding result in series [2] is given as “binds”; in series [3], “no binding”.

B3: HSV-60 dsDNA (dsDNA)
DNA 1: TAAGACACGATGCGATAAAATCTGTTTGTAAAATTTATTAAGGGTACAAATTGCCCTAGC
DNA 2: GCTAGGGCAATTTGTACCCTTAATAAATTTTACAAACAGATTTTATCGCATCGTGTCTTA
What is called Kd is the concentration at which binding is half-saturated. With B3, the binding result in series [4] was “binds”; in [5], “no binding”; in series [7] it was “no binding”; in series [8], “no binding”. Further, the dissociation constant Kd in series [6] turned out to be 3 nM.

B4: HSV-60 DNA-RNA hybrid (DNA:RNA)
DNA: B3 DNA 1
RNA: B1 RNA 2
Turning to B4, the binding result in series [6] is recorded as “binds”.

B5: HSV-60 ssDNA (ssDNA)
DNA: B3 DNA 1
Turning to B5, in series [6], the binding result is “binds”.

B6: HSV-60 dsDNA unlabelled (dsDNA)
DNA 1: B3 DNA 1
DNA 2: B3 DNA 2
Consider B6, for which the binding result in [9] is given as “no binding”.

The values above are taken from article PMC6469509.
